Measured values reported in the supplement of paper PMC10567573.

B1: TRIM63 (parent)
chain: QRITQEQEKKLSFIEALIQQYQEQ
B2: TRIM55 (parent)
chain: ICPICLEMFTKPVVILPCQHNLCR

Variants of: B1
Test: protein stability index of a GFP-peptide fusion (GPS, HEK-293T) (PSI 1-6); higher = more stable
Conditions: c terminus: a fixed tail appended
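Note: lentivirally expressed fusions sorted by FACS into six bins by GFP to DsRed ratio, PSI derived from sequencing read proportions per bin multiplied by bin number.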

Compared with QYITQEQEKKLSFIEALIQQYQEQ, QTITQEQEKKLSFIEALIQQYQEQ is higher in protein stability index: 1.75 for the first, 2.42 for the second.

Going from QVITQEQEKKLSFIEALIQQYQEQ to QLITQEQEKKLSFIEALIQQYQEQ, the protein stability index falls from 2.72 to 2.63.

Compared with QKITQEQEKKLSFIEALIQQYQEQ, QSITQEQEKKLSFIEALIQQYQEQ is higher in protein stability index: 2.26 for the first, 2.45 for the second.

Compared with QCITQEQEKKLSFIEALIQQYQEQ, QMITQEQEKKLSFIEALIQQYQEQ is lower in protein stability index: 2.85 for the first, 2.48 for the second.

First: QNITQEQEKKLSFIEALIQQYQEQ
Second: QAITQEQEKKLSFIEALIQQYQEQ
The protein stability index of the first is higher: 2.91 for the first, 2.57 for the second.

First: QIITQEQEKKLSFIEALIQQYQEQ
Second: QHITQEQEKKLSFIEALIQQYQEQ
The protein stability index of the first is lower: 1.89 for the first, 2.44 for the second.

Going from QQITQEQEKKLSFIEALIQQYQEQ to QWITQEQEKKLSFIEALIQQYQEQ, the protein stability index falls from 2.23 to 2.2.

Going from QDITQEQEKKLSFIEALIQQYQEQ to QFITQEQEKKLSFIEALIQQYQEQ, the protein stability index falls from 3.23 to 2.06.

First: QPITQEQEKKLSFIEALIQQYQEQ
Second: QEITQEQEKKLSFIEALIQQYQEQ
The protein stability index of the first is higher: 3.23 for the first, 1.88 for the second.

Compared with QGITQEQEKKLSFIEALIQQYQEQ, QRWTQEQEKKLSFIEALIQQYQEQ is higher in protein stability index: 2.35 for the first, 2.44 for the second.

Compared with QRQTQEQEKKLSFIEALIQQYQEQ, QRKTQEQEKKLSFIEALIQQYQEQ is higher in protein stability index: 2.33 for the first, 2.37 for the second.

Going from QRGTQEQEKKLSFIEALIQQYQEQ to QRPTQEQEKKLSFIEALIQQYQEQ, the protein stability index rises from 2.31 to 2.62.

Compared with QRETQEQEKKLSFIEALIQQYQEQ, QRHTQEQEKKLSFIEALIQQYQEQ is higher in protein stability index: 2.45 for the first, 2.54 for the second.

First: QRFTQEQEKKLSFIEALIQQYQEQ
Second: QRMTQEQEKKLSFIEALIQQYQEQ
The protein stability index of the first is higher: 2.61 for the first, 1.83 for the second.

Compared with QRLTQEQEKKLSFIEALIQQYQEQ, QRTTQEQEKKLSFIEALIQQYQEQ is lower in protein stability index: 2.5 for the first, 2.39 for the second.

Going from QRNTQEQEKKLSFIEALIQQYQEQ to QRVTQEQEKKLSFIEALIQQYQEQ, the protein stability index rises from 2.48 to 2.56.

First: QRSTQEQEKKLSFIEALIQQYQEQ
Second: QRRTQEQEKKLSFIEALIQQYQEQ
The protein stability index of the first is lower: 2.59 for the first, 2.76 for the second.

First: QRATQEQEKKLSFIEALIQQYQEQ
Second: QRDTQEQEKKLSFIEALIQQYQEQ
The protein stability index of the first is higher: 2.37 for the first, 2.22 for the second.

Going from QRCTQEQEKKLSFIEALIQQYQEQ to QRYTQEQEKKLSFIEALIQQYQEQ, the protein stability index falls from 2.3 to 2.16.

Compared with ARITQEQEKKLSFIEALIQQYQEQ, MRITQEQEKKLSFIEALIQQYQEQ is higher in protein stability index: 2.3 for the first, 2.36 for the second.

First: ERITQEQEKKLSFIEALIQQYQEQ
Second: TRITQEQEKKLSFIEALIQQYQEQ
The protein stability index of the first is higher: 3.15 for the first, 2.19 for the second.

Going from NRITQEQEKKLSFIEALIQQYQEQ to SRITQEQEKKLSFIEALIQQYQEQ, the protein stability index falls from 2.31 to 2.23.

Going from YRITQEQEKKLSFIEALIQQYQEQ to CRITQEQEKKLSFIEALIQQYQEQ, the protein stability index rises from 1.95 to 2.11.

First: WRITQEQEKKLSFIEALIQQYQEQ
Second: KRITQEQEKKLSFIEALIQQYQEQ
The protein stability index of the first is lower: 1.95 for the first, 2.17 for the second.

Compared with DRITQEQEKKLSFIEALIQQYQEQ, FRITQEQEKKLSFIEALIQQYQEQ is higher in protein stability index: 2.32 for the first, 2.91 for the second.

Compared with HRITQEQEKKLSFIEALIQQYQEQ, VRITQEQEKKLSFIEALIQQYQEQ is lower in protein stability index: 2.84 for the first, 1.79 for the second.

Compared with PRITQEQEKKLSFIEALIQQYQEQ, LRITQEQEKKLSFIEALIQQYQEQ is higher in protein stability index: 2.17 for the first, 2.57 for the second.

Going from RRITQEQEKKLSFIEALIQQYQEQ to GRITQEQEKKLSFIEALIQQYQEQ, the protein stability index falls from 2.16 to 2.13.

With IRITQEQEKKLSFIEALIQQYQEQ the protein stability index was 2.75.

Variants of: B2
Test: as above
Conditions: c terminus: a fixed tail appended

Going from ICPICLEMFTKPVVILPCQHNLRR to ICPICLEMFTKPVVILPCQHNLLR, the protein stability index falls from 2.47 to 2.28.

Compared with ICPICLEMFTKPVVILPCQHNLGR, ICPICLEMFTKPVVILPCQHNLFR is lower in protein stability index: 2.01 for the first, 1.73 for the second.

Compared with ICPICLEMFTKPVVILPCQHNLVR, ICPICLEMFTKPVVILPCQHNLYR is lower in protein stability index: 2.46 for the first, 2.25 for the second.

Going from ICPICLEMFTKPVVILPCQHNLPR to ICPICLEMFTKPVVILPCQHNLIR, the protein stability index falls from 2.24 to 1.82.

Compared with ICPICLEMFTKPVVILPCQHNLTR, ICPICLEMFTKPVVILPCQHNLSR is lower in protein stability index: 2.64 for the first, 1.93 for the second.

First: ICPICLEMFTKPVVILPCQHNLQR
Second: ICPICLEMFTKPVVILPCQHNLWR
The protein stability index of the first is higher: 2.21 for the first, 2.05 for the second.

First: ICPICLEMFTKPVVILPCQHNLER
Second: ICPICLEMFTKPVVILPCQHNLNR
The protein stability index of the first is higher: 2.65 for the first, 2.13 for the second.

First: ICPICLEMFTKPVVILPCQHNLKR
Second: ICPICLEMFTKPVVILPCQHNLHR
The protein stability index of the first is lower: 2.03 for the first, 2.92 for the second.

First: ICPICLEMFTKPVVILPCQHNLDR
Second: ICPICLEMFTKPVVILPCQHNLMR
The protein stability index of the first is lower: 1.97 for the first, 2.43 for the second.

Compared with ICPICLEMFTKPVVILPCQHNLCP, ICPICLEMFTKPVVILPCQHNLCM is lower in protein stability index: 2.32 for the first, 2.15 for the second.

Going from ICPICLEMFTKPVVILPCQHNLCS to ICPICLEMFTKPVVILPCQHNLCW, the protein stability index rises from 1.85 to 2.35.

Going from ICPICLEMFTKPVVILPCQHNLCG to ICPICLEMFTKPVVILPCQHNLCV, the protein stability index falls from 2.41 to 1.83.

Going from ICPICLEMFTKPVVILPCQHNLCN to ICPICLEMFTKPVVILPCQHNLCL, the protein stability index falls from 2.95 to 2.11.

First: ICPICLEMFTKPVVILPCQHNLCQ
Second: ICPICLEMFTKPVVILPCQHNLCT
The protein stability index of the first is lower: 2.57 for the first, 2.71 for the second.

ICPICLEMFTKPVVILPCQHNLCD and ICPICLEMFTKPVVILPCQHNLCC are the same in protein stability index: 2.27 for the first, 2.27 for the second.

Compared with ICPICLEMFTKPVVILPCQHNLCI, ICPICLEMFTKPVVILPCQHNLCY is lower in protein stability index: 2.24 for the first, 2.13 for the second.

First: ICPICLEMFTKPVVILPCQHNLCH
Second: ICPICLEMFTKPVVILPCQHNLCA
The protein stability index of the first is higher: 2.4 for the first, 1.92 for the second.

Going from ICPICLEMFTKPVVILPCQHNLCK to ICPICLEMFTKPVVILPCQHNLCE, the protein stability index falls from 2.32 to 2.11.

ICPICLEMFTKPVVILPCQHNLCF gave a protein stability index of 2.01.
